Assay results: patent US20040208887A1 (MOLECULES OF MAN, published 2004)

What was measured:
[1] = biological target: T1, recombinant E1/E2 heterodimer protein (genotype 1a) (hepatitis C virus genotype 1a, UniProt P26664 192-383; P26664 384-746, limits assumed); test: ELISA, E1/E2 heterodimer coated; crude periplasmic Fab
T1 construct: also called E1/E2 in complex; recombinant E1/E2 antigen

[2] = biological target: T2, recombinant soluble HCV E1 protein (hepatitis C virus); test: ELISA, recombinant E1 captured on GNA lectin; crude periplasmic Fab
T2 construct: It is not the cell-surface E1-myc construct (aa 174-359 of H77c) that was used for phage selection; also called recombinant E1; soluble E1 protein

T1 sequence (P26664 192-383 limits assumed, chain 1 of 2): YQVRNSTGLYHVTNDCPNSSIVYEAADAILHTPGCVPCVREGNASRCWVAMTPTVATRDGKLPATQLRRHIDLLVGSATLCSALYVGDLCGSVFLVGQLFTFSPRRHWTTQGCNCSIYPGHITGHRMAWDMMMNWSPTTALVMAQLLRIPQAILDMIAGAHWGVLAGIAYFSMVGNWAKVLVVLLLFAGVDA
T1 sequence (P26664 384-746 limits assumed, chain 2 of 2): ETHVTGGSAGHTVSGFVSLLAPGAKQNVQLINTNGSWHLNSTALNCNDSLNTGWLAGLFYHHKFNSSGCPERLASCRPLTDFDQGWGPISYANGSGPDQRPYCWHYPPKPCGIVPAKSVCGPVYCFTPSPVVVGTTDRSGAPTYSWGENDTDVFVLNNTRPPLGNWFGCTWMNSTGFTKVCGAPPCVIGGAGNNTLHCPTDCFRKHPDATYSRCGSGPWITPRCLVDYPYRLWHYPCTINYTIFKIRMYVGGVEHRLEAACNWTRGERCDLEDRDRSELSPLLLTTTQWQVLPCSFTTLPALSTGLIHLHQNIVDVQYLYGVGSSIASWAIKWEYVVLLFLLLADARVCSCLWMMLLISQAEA

| Binder | OD405 nm [1] [OD405 nm] | OD405 nm [2] [OD405 nm] |
| --- | --- | --- |
| Fab clone 2b-5 (Fab, V domains shown, Human Fab (gamma1 Fd + kappa), crude periplasmic preparation, approx. >1.0 ug Fab/ml) VH: EVQLLESGGGVVQPGRSLRLSCAASGFTLSTYAMHWVRQAPGRGLEWVAVISYDGDHKFYADSMKGRFAISRDTSTNTLYLEVNSLKIEDTAVYYCARDRDRRGGYVFSTTGGLDSWGQGTLVTVSS VL: AELTQSPLSLAVTPGEPASISCRTSQSLLHSNGYTYLDWYLQKPGQSPQLLIYLASNRASGVPDRFSGSGSGTDFTLEISRVEAEDVGVYYCMQPLQTPVTFGQGTKVEVK | 1.4 | 2.21 |
| Fab clone 1:4 (Fab, V domains shown, Human Fab (gamma1 Fd + kappa), crude periplasmic preparation, approx. 0.01 ug Fab/ml) VH: EVQLLESGPGLVKPSETLSLTCTVSNGSMSNYCWSWIRQSPGKGLEWIGYIYYSGSTSYNPSLRSRVALLVDTSKNQFSLKLTSVTTADTAVYYCARDLSARGGTRNRDALDVWGQGTQVTVSA VL: not shown | 0.67 | 0.78 |
| Fab clone 2b-3 (Fab, V domains shown, Human Fab (gamma1 Fd + kappa), crude periplasmic preparation, approx. 1.0 ug Fab/ml) VH: EVQLLESGAEVKKPGASVTVSCKASGYSFSDYYIHWVRQAPGQGLEWMGIINPSAGTTTYKQKFQHRVTLTRDTSTNTAYMKLYNLTPDDTAIFFCARGSGGSRSEYDYWGQGTLVTVSS VL: AELTQSPSSLSASVGDGVTITCRASQSISTYLNWYQQKPGKAPKLLMYAASTLQSGVPSRFSGSGSGTDFTLTISSLQPEDFAAYYCQQARSFPYTFGQGTRLEIR | 0.19 | 1.18 |
| Fab clone 2a-32 (Fab, V domains shown, Human Fab (gamma1 Fd + kappa), crude periplasmic preparation, approx. >1 ug Fab/ml) VH: VQLLEQSGGDLVKPGGSLRLSCAASGFTFTDYYMNWIRQAPGKGLEWIAYISIGSDDTKYAASVKGRFSISRDNAKNSLYLQMNSLRVEDTAVYYCGRGGGYCSGGNCYSSDYWGQGALVTVSS VL: AELTQSPSSLSAFTGDRVSITCRASQGIGNSLAWYQQKPGHVPKVLIYDASTLSSGAPSRFSGSGSGTDFTLTISGLQPEDVATYYCQKYKSAPLTFGGGTKVEIR | 0.09 | 0.61 |
| Fab clone 2b-10 (Fab, V domains shown, Human Fab (gamma1 Fd + kappa), crude periplasmic preparation, approx. >1.0 ug Fab/ml) VH: EVQLLESGGGVVQPGRSLKLSCTASTFTFTNYAMHWVRQAPGKGLEWVALISNDGSKTYYTDSVRGRFTISRDNSKNTLFLQMNSLRTEDTAVYHCARVKLQGSFNVYYYYGLDVWGQGTTVTVSS VL: AELTQSPLSLPVTPGEPASISCRSSQSLLHSDGYNYFDWYLQKPGQSPQLLIYLGSNRASGVPDRFSGSGSDTDFTLKISRVEAEDVGVYYCMQTLQTLTFGGGTKLEIK | 0.11 | 0.48 |
| Fab clone 2b-4 (Fab, V domains shown, Human Fab (gamma1 Fd + kappa), crude periplasmic preparation, approx. 0.68 ug Fab/ml) VH: EVQLLESGGEVKKPGSSVKVSCKASGGPFSSYAIHWVRQAPGQGLEWMGAIIPFLGRAKYAQKFEGRVTITADGSMSTAYMEVSSLRSDDTAMYYCARDRGELLLRMDVWGQGTAVTVSS VL: AELTQSPAFMSATPGDKVNISCKASQDIDDDMNWYQQKPGEAAIFIIQEATTLVPGIPPRFSGSGYGTDFTLTINNIESEDAAYYFCLQHDNFPLTFGQGTKVEIK | 0.09 | 0.11 |
| Fab clone 2b-7 (Fab, V domains shown, Human Fab (gamma1 Fd + kappa), crude periplasmic preparation, approx. 0.54 ug Fab/ml) VH: VQLLEQSGAEVKKPGESLKISCRASGYSFSLFWVAWVRQMPGQGLEWMAIIYPGDSDTTYSPSFEGQVNVSVDKPISTAYLQWSSLKASDTAMYYCARRRSSDRRDAFDIWGPGTMVTVSS VL: AELTQSPAFMSATPGDKVNISCKASQDIDDDMNWYQQKPGEAAIFIIQEATTLVPGIPPRFSGSGYGTDFTLTINNIESEDAAYYFCLQHDNFPLTFGQGTKVEIK | 0.32 | 0.47 |
| Fab clone 2a-37 (Fab, V domains shown, Human Fab (gamma1 Fd + kappa), crude periplasmic preparation, approx. 0.08 ug Fab/ml) VH: EVQLLESGGGLVQPGRSLRLSCAASGFTFSNSDMHWVRQAPGKGLEWVTVSSRDGYDNYYADSVRGRFTISRDNSKNTLYLQMNTLRAEDTAVYYCAKRRGYAFDIWGQGTMVTVSS VL: AELTQSPSSLSASVGDRVTITCRASQSINTYLNWYQQKPGKAPELLIYGASSLQSGVPSRFSGSGSGTDFTLTITSLQAEDFASYFCQQSDSTPRTFGQGTKVEIK | 0.48 | 0.99 |
| Fab clone 2b-1 (Fab, V domains shown, Human Fab (gamma1 Fd + kappa), crude periplasmic preparation, approx. 0.94 ug Fab/ml) VH: EVQLLESGPRLVKPSQTLSLTCTVSGDSLNNASHYWAWIRQPAGKGLEWIGRIHRGGSTNYNPSLQSRVTISMDESKNQFSLRLNSVTAADTAVYYCARDPPKAWGPGILVTVSS VL: AELTQSPSSLSASVGDRVTIACRASQSISNHLNWYQQKPGKAPKVLIYAASSLQSGVPSRFSGSGSGTDFTLTISSLQPEDFAIYYCQQSYSNADFGPGTKVDIK | 0.12 | 0.35 |
| Fab clone 2a-33 (Fab, V domains shown, Human Fab (gamma1 Fd + kappa), crude periplasmic preparation, approx. >1 ug Fab/ml) VH: VQLLEQSGGGLVQPGRSLRLSCAASGFTFDDYAMHWVRQTPGKGLEWVSGIGWNSGTIEYADSVKGRFTISRDNAKNSLYLQMNSLRPEDTALYYCAKDLHSFGYCSGRSCYFHPFDYWGQGTLVTVSS VL: not shown | 0.14 | 0.65 |
